Results published in patent publication US11267871B2, “Topical application for an anti-HSV antibody” (priority 2014, dated 2022).

B1: mAb hu2c: humanized derivative of murine mAb 2c recognizing glycoprotein B of HSV-1/2; CDRs grafted into DP28/DPK13, human γ1 and κ constant chains (antibody, V domains shown)
VH: QVTLKESGPALVKPTQTLTLTCTFSGFSLSTSGMSVGWIRQPPGKALEWLAHIWWNNDKYYKPALKSRLTISKDTSKNQVVLTMTNMDPVDTATYYCARIYYGYRPYAMDYWGQGTLVTVSS
VL: DIVMTQTPLSLPVTPGEPASISCRSSQSIVHSNGNTYLEWYLQKPGQSPQLLIYKVSNRFSGVPDRFSGSGSGTDFTLKISRVEAEDVGVYYCFQGSHVPWSFGQGTKVEIKR
modifications: VH of the humanized mAb hu2c antibody; VL of the humanized mAb hu2c antibody
notes: humanized derivative of murine mAb 2c recognizing glycoprotein B of HSV-1/2; CDRs grafted into DP28/DPK13, human γ1 and κ constant chains

How the values were obtained:
[1] = system: recurrent herpes labialis; conditions: 5 times per day for 4 days, cited from earlier work
HSV-2 G = assay: Topical treatment of acute genital HSV-2 infection in immunodeficient mice (survival, clinical score); type: in vivo, mice (NOD.CB17-Prkdc^scid/NCrHsd); conditions: for mice with acute genital HSV-2 infection / local genital symptoms resolved at 48 h (number) / mice with acute genital HSV-2 infection / local genital symptoms resolved at 48 h (percent): 48 h after start of topical treatment, ACV 1 mg twice per day ongoing; for mice with acute genital HSV-2 infection / local genital symptoms resolved at 48 h (number) / mice with acute genital HSV-2 infection / local genital symptoms resolved at 48 h (percent) / mice in which HSV-2 lethal encephalitis was prevented: hu2c single 200 μg; for mice in which HSV-2 lethal encephalitis was prevented: topical, ACV 1 mg twice per day for 4 days
Method: FIG. 1: compares the survival of immunodeficient mice with acute genital HSV-2 infection after topical treatment either with the humanized monoclonal antibody hu2c or acyclovir. Female mice (NOD.CB17-Prkdc^scid/NCrHsd) were treated with a long-acting progestin (Depo-Clinovir, Pharmacia) 7 days prior to viral challenge to increase susceptibility to HSV-2 infection and to eliminate differences caused by the estrous cycle. Anesthetized mice were vaginally challenged with a lethal dose of 5×10^5 PFU of HSV-2 G (20 μl). Mice displaying visible infection (perineal hair loss, reddening, swelling) were treated one day after viral challenge (A) once with 40 μl hu2c (5 mg/ml) (●) or 40 μl control IgG (5 mg/ml) (□) or (B) twice daily for 4 days with 40 μl ACV (25 mg/ml) (Δ) or 40 μl PBS (x). Drug solutions or PBS were applied topically to the outer genital epithelium. Mice were monitored for 36 days after viral inoculation. Mice displaying sever systemic signs and/or severe lesions/zoster were killed. Surviving mice were sacrificed at day 36. Test groups contained eight animals each, control groups contained five animals each. Kaplan-Meier survival curves were analyzed by log-rank (Mantel-Cox) test. Two-tailed significance tests were used to compare the significance level between two groups. All protocols were approved by the Animal Care and Use Committee.
Mice displaying visible infection (perineal hair loss, reddening, swelling) one day after intravaginal challenge with a lethal dose of 5×10^5 PFU of HSV-2 G (20 μl) were treated (A & C) twice daily for 4 days with (A) 40 μl PBS or (C) 40 μl ACV (25 mg/ml), or treated (B & D) once at 24 h post infection with (B) 40 μl hu2c (5 mg/ml) or (D) 40 μl control IgG (5 mg/ml). Drug solutions or PBS were applied topically to the outer genital epithelium.
Infected animals were observed daily and their clinical status was scored as follows: 0, lack of symptoms, no lesions; 1-2, redeness and/or swelling (erosion); 3, localized lesion <1 mm; 4-5, localized lesion 2-3 mm; 6-7 localized lesion 4-5 mm; 8-9, severe hyperemia, destruction of the epithelium and stroma with necrosis; 10, systemic signs, death. Animals with grading >8 were killed to prevent undue suffering. Test groups contained eight animals each, control groups contained five animals each. Arrows indicate time points of treatment.
• The ability of the humanized monoclonal antibody hu2c to alter the clinical course of acute genital HSV-2 infection in immunodeficient mice following a single topical treatment with 200 μg mAb hu2c (5 mg/ml) was investigated. To infect 100% of mice as assessed by visible lesions and culture of vaginal lavage, a viral inoculum of 5×10^5 PFU of HSV-2 G was delivered to the vagina of anesthetized mice. • Although acute HSV-1 or HSV-2 infections result in a fatal outcome in 100% of mice with severe combined immunodeficiency when compared to 70-90% mortality in immunocompetent mice, the immunodeficient model has nevertheless been chosen to discriminate a possible clinical efficacy of the therapy from an elimination of the viral infection due to immune effector cells of the mouse (Minagawa et al., Arch Virol 103, 73-82 (1988); Nagafuchi et al., J Gen Virol 44, 715-723 (1979)). Within genital mucosa the expansion rates of HSV-2 are extremely rapid. At 24 h after viral challenge infected mice received topically at the infected area either twice per day for 4 days 1 mg acyclovir (ACV) (25 mg/ml) or 40 μl buffer (PBS) or a single treatment of 200 μg mAb hu2c (5 mg/ml) or 200 μg control mAb (5 mg/ml). Clinical efficacy of the HSV-specific mAb was compared to the irrelevant mAb (isotypcontrol), ACV and PBS treatment by means of Kaplan-Meier survival curves and daily assessment of the clinical status of the mucous membranes of the genital and anal area. […]

[2] = system: oral herpes infection (HSV-1 or HSV-2, type not analyzed); assay: Topical application of humanized anti-HSV antibody in volunteers with acute recurrence of oral herpes (cold sores); type: in vivo, human
Method: 1.2 Trial Description • Between 2010-2013, twelve healthy 30-59 year old volunteers (7 female, 5 male) with an acute recurrence of oral herpes infection (cold sores) were treated. Volunteers presented themselves when the onset of initial HSV symptoms (itching of the lips, burning or tingling near the lips or mouth area) occurred or had progressed to visible skin disorders on the outer lips. […] However, sometimes HSV-2 is spread to the mouth during oral sex, causing oral herpes. The type of HSV infection (HSV-1 or HSV-2) was not analyzed. • The antibody was packaged as sterile solutions either in PBS or PBS/ash créme (1:1) at concentrations of 0.7-1 mg/ml. Participants applied approx. 10 μl of the antibody topically once, once per day for two days or for a total of three times maximum.
2. Results • ZOVIRAX Cream had been evaluated in 2 double-blind, randomized, placebo (vehicle)-controlled trials (see Zovirax N-. Zovirax Prescribing Information. http://wwwaccessdatafdagov/drugsatfda_docs/label/2002/21478_zovirax_Ib|pdf#page=1&zoom=auto,0,792). • In the Zovirax studies, subjects were instructed to initiate treatment within 1 hour of noticing signs or symptoms and continue treatment for 4 days, with application of study medication 5 times per day. […] At time of treatment several small blisters were visible. For the antibody treated HSV infection a quick recovery was observed.

[3] = 72 h after commencement of ACV treatment
[4] = one volunteer, upper lip, antibody three times

Row | Molecule | reduction of episode duration compared with placebo [1] | mean duration of the recurrent herpes labialis episode ([1]; placebo 5 days) | mice with acute genital HSV-2 infection / local genital symptoms resolved at 48 h (number) (HSV-2 G) | mice with acute genital HSV-2 infection / local genital symptoms resolved at 48 h (percent) (HSV-2 G) | mice with no local signs at 72 h (number) (HSV-2 G; [3]) | mice with no local signs at 72 h (percent) (HSV-2 G; [3]) | mice in which HSV-2 lethal encephalitis was prevented (HSV-2 G) | spread of the infected area upon treatment ([2]; all participants) | fast symptom and pain relief after application ([2]; all participants, approx. 10 μl of 0.7-1 mg/ml, one to three applications) | overall rates of clinical reactivation (participants' impression) ([2]; human, in vivo) | occurrence of lesions ([2]; one volunteer, upper lip) | time to disappearance of blisters [2, 4] | time until swelling subsided [2, 4] | healing when treatment started at stage of visible external herpetic lesions ([2]; participants' report) | course of active blisters ([2]; participants' report or one volunteer with upper lip (antibody) and lower lip (Zovirax)) | time to elimination of the infection ([2]; topical administration, acute infection of the tissue of the lips)
1 | Nc1nc(=O)c2ncn(COCCO)c2[nH]1 [ACV, 2-Amino-9-(2-hydroxyethoxymethyl)-3H-purin-6-on] | 0.5 days | 4.5 days | 1 out of 8 | 13% | 5 out of 8 | 63% | 1 out of 8 | – | – | – | – | – | – | – | – | –
2 | B1 | – | – | 7 out of 8 | 88% | – | – | 1 out of 8 | did not spread | ≤ 24 h | tend to be reduced | no lesions occurred | ≤ 24 h | ≤ 48 h | rapid healing and disappearance of crusted areas | regressed and did not turn into weeping blisters | ≤ 24 h
